Values joined by “and” are separate entries in the source; they are usually repeats but may differ in a detail not shown here. Identical values can stand only once.
Assays:
[1] = biological target: purified human placental alkaline phosphatase (hPLAP, SIGMA) (human) (UniProt P05187); assay: ELISA, plate coated with purified hPLAP; mAb 64 ng/ml spiked in negative serum, diluted 1:64; anti-mouse-HRP, TMB
[2] = biological target: purified human placental alkaline phosphatase (hPLAP, SIGMA) (human) (UniProt P05187); assay: ELISA, plate coated with purified hPLAP; mAb 64 ng/ml spiked in negative serum, diluted 1:32; anti-mouse-HRP, TMB
[3] = biological target: purified human placental alkaline phosphatase (hPLAP, SIGMA) (human) (UniProt P05187); assay: ELISA, plate coated with purified hPLAP; mAb 64 ng/ml spiked in negative serum, diluted 1:16; anti-mouse-HRP, TMB
[4] = biological target: purified human placental alkaline phosphatase (hPLAP, SIGMA) (human) (UniProt P05187); assay: ELISA, plate coated with purified hPLAP; mAb 64 ng/ml in PBS, diluted 1:8; anti-mouse-HRP, TMB
[5] = biological target: purified human placental alkaline phosphatase (hPLAP, SIGMA) (human) (UniProt P05187); assay: ELISA, plate coated with purified hPLAP; mAb 64 ng/ml in PBS, undiluted; anti-mouse-HRP, TMB
[6] = biological target: purified human placental alkaline phosphatase (hPLAP, SIGMA) (human) (UniProt P05187); assay: ELISA, plate coated with purified hPLAP; mAb 64 ng/ml in PBS, diluted 1:16; anti-mouse-HRP, TMB
[7] = biological target: purified human placental alkaline phosphatase (hPLAP, SIGMA) (human) (UniProt P05187); assay: ELISA, plate coated with purified hPLAP; mAb 64 ng/ml in PBS, diluted 1:4; anti-mouse-HRP, TMB
[8] = biological target: purified human placental alkaline phosphatase (hPLAP, SIGMA) (human) (UniProt P05187); assay: ELISA, plate coated with purified hPLAP; mAb 64 ng/ml spiked in negative serum, diluted 1:4; anti-mouse-HRP, TMB
[9] = biological target: purified human placental alkaline phosphatase (hPLAP, SIGMA) (human) (UniProt P05187); assay: ELISA, plate coated with purified hPLAP; mAb 64 ng/ml spiked in negative serum, undiluted; anti-mouse-HRP, TMB
[10] = biological target: purified human placental alkaline phosphatase (hPLAP, SIGMA) (human) (UniProt P05187); assay: ELISA, plate coated with purified hPLAP; mAb 64 ng/ml in PBS, diluted 1:64; anti-mouse-HRP, TMB
[11] = biological target: purified human placental alkaline phosphatase (hPLAP, SIGMA) (human) (UniProt P05187); assay: ELISA, plate coated with purified hPLAP; mAb 64 ng/ml in PBS, diluted 1:32; anti-mouse-HRP, TMB
[12] = biological target: purified human placental alkaline phosphatase (hPLAP, SIGMA) (human) (UniProt P05187); assay: ELISA, plate coated with purified hPLAP; mAb 64 ng/ml spiked in negative serum, diluted 1:2; anti-mouse-HRP, TMB
[13] = biological target: purified human placental alkaline phosphatase (hPLAP, SIGMA) (human) (UniProt P05187); assay: ELISA, plate coated with purified hPLAP; mAb 64 ng/ml spiked in negative serum, diluted 1:8; anti-mouse-HRP, TMB
[14] = biological target: purified human placental alkaline phosphatase (hPLAP, SIGMA) (human) (UniProt P05187); assay: ELISA, plate coated with purified hPLAP; mAb 64 ng/ml in PBS, diluted 1:2; anti-mouse-HRP, TMB
[15] = biological target: purified human placental alkaline phosphatase (hPLAP, SIGMA) (human) (UniProt P05187); assay: ELISA, plate coated with purified hPLAP; row labelled '0' (not explained, presumably no sample, blank); anti-mouse-HRP, TMB

Sequence of UniProt P05187 (P05187 23-506 limits assumed): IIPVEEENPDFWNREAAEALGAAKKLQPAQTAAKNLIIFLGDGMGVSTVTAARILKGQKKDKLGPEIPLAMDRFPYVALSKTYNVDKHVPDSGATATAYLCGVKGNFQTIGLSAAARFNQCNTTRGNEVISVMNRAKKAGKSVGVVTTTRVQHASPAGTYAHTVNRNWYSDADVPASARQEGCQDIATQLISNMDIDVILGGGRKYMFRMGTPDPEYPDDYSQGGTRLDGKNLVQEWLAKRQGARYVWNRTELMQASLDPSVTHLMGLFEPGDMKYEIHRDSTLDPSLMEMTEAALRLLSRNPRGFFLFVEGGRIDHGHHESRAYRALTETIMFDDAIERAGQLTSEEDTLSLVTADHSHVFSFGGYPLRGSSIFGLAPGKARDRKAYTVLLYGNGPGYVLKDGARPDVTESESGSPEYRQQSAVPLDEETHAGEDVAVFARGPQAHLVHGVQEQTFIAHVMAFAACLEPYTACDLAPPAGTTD

| Substance | absorbance at 450 nm [1] [absorbance] | absorbance at 450 nm [2] [absorbance] | absorbance at 450 nm [3] [absorbance] | absorbance at 450 nm [4] [absorbance] | absorbance at 450 nm [5] [absorbance] | absorbance at 450 nm [6] [absorbance] | absorbance at 450 nm [7] [absorbance] | absorbance at 450 nm [8] [absorbance] | absorbance at 450 nm [9] [absorbance] | absorbance at 450 nm [10] [absorbance] | absorbance at 450 nm [11] [absorbance] | absorbance at 450 nm [12] [absorbance] | absorbance at 450 nm [13] [absorbance] | absorbance at 450 nm [14] [absorbance] | absorbance at 450 nm [15] |
| --- | --- | --- | --- | --- | --- | --- | --- | --- | --- | --- | --- | --- | --- | --- | --- |
| mouse monoclonal antibody to PLAP (clone 8B6, Sigma Immunochemicals) | 0.042 | 0.071 | 0.123 | 0.282 | 0.486 | 0.169 | 0.424 | 0.341 | 0.546 | 0.047 | 0.091 | 0.439 | 0.209 | 0.487 | 0.007 absorbance and 0.009 absorbance |
| serum of mice injected with saline (negative control serum) | – | – | – | – | – | – | – | – | – | – | – | – | – | – | 0.005 absorbance |

— patent EP1270739A1
